This is an account of results in publication PMC8990529.

The subject of series [1] is G4-forming KRAS oligo (32R), unlabeled (DNA, G4) AGGGCGGTGTGGGAAGAGGGAAGAGGGGGAGG
Nature of the series: UV-Vis absorption titration, Scatchard plot. Particulars: 50 mM KCl; 10 mM Tris-HCl pH 7.5, 1 mM EDTA, RT; 4 µM TMPyP4, oligo 0-1.8 µM; specific site.

Series [2] relates to anti-G4 antibody clone 1H6 (mouse). As to the kind of experiment: fluorescence polarization. Particulars: FP: 50 mM Tris-HCl pH 7.5, 50 mM KCl, 1 mM MgCl2, 1 mM DTT, 0.1 mM EDTA, 10 nM oligo, 30 min RT, read at 25 C; Trp quenching: same buffer, 500 nM APE1, 20 C.
Another series addresses APE1 H309A (human, UniProt P27695 1-318, H309A). As to the kind of experiment: fluorescence polarization; 50 mM KCl, 1 mM MgCl2; FP: 50 mM Tris-HCl pH 7.5, 50 mM KCl, 1 mM MgCl2, 1 mM DTT, 0.1 mM EDTA, 10 nM oligo, 30 min RT, read at 25 C; Trp quenching: same buffer, 500 nM APE1, 20 C. Particulars: protein: recombinant; label: 5'-6-FAM; parallel G4 (CD), prefolded in 50 mM KCl.

Series [3] has as its target T1, APE1 WT (human, UniProt P27695 1-318). The description is as above. Conditions: protein: recombinant; label: 5'-6-FAM; parallel G4 (CD), prefolded in 50 mM KCl.
For a further series, the target named is APE1 NΔ42 (human, UniProt P27695 43-318, del1-42). The series is described as above. Particulars: protein: recombinant; label: 5'-6-FAM; parallel G4 (CD), prefolded in 50 mM KCl.
Sequence of APE1 NΔ42 (P27695 43-318, stated change not applied): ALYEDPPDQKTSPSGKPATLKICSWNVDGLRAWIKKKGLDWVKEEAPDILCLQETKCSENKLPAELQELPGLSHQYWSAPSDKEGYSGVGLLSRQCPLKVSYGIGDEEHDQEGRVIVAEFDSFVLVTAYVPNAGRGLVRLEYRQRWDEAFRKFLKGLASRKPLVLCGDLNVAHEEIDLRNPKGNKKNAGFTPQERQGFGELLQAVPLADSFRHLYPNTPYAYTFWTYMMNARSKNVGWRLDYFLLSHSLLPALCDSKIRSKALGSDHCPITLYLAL
A further series deals with T2, GST-APE1 1-42 (human, UniProt P27695 1-42).
T2 chain: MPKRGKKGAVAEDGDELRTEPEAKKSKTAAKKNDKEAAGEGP
As to the kind of experiment: fluorescence polarization; 50 mM KCl, 1 mM MgCl2; no measurable affinity; FP: 50 mM Tris-HCl pH 7.5, 50 mM KCl, 1 mM MgCl2, 1 mM DTT, 0.1 mM EDTA, 10 nM oligo, 30 min RT, read at 25 C; Trp quenching: same buffer, 500 nM APE1, 20 C. Conditions: protein: recombinant; tags: GST; label: 5'-6-FAM; parallel G4 (CD), prefolded in 50 mM KCl.

Series [4] addresses T1, APE1 WT. Nature of the series: competition (fluorescence polarization; printed as EC50); 640 nM APE1, 10 nM 6-FAM G4-forming KRAS oligo as probe; FP: 50 mM Tris-HCl pH 7.5, 50 mM KCl, 1 mM MgCl2, 1 mM DTT, 0.1 mM EDTA, 10 nM oligo, 30 min RT, read at 25 C; Trp quenching: same buffer, 500 nM APE1, 20 C. Particulars: protein: recombinant; parallel G4 (CD), prefolded in 50 mM KCl. (In general: Fluorescence polarisation rises when a labelled molecule tumbles more slowly, as on binding a larger partner.)

Series [5] has as its target T1, APE1 WT. As to the kind of experiment: tryptophan fluorescence quenching (Scatchard); 500 nM APE1, 50 mM KCl, 1 mM MgCl2, 20 C; FP: 50 mM Tris-HCl pH 7.5, 50 mM KCl, 1 mM MgCl2, 1 mM DTT, 0.1 mM EDTA, 10 nM oligo, 30 min RT, read at 25 C; Trp quenching: same buffer, 500 nM APE1, 20 C. Conditions: protein: recombinant; parallel G4 (CD), prefolded in 50 mM KCl.
For series [6], the target named is T1, APE1 WT. Nature of the series: fluorescence polarization; 50 mM KCl, 1 mM MgCl2; no measurable affinity; FP: 50 mM Tris-HCl pH 7.5, 50 mM KCl, 1 mM MgCl2, 1 mM DTT, 0.1 mM EDTA, 10 nM oligo, 30 min RT, read at 25 C; Trp quenching: same buffer, 500 nM APE1, 20 C. Conditions: protein: recombinant; label: 5'-6-FAM; no parallel G4 by CD.

T1 sequence (P27695 whole entry): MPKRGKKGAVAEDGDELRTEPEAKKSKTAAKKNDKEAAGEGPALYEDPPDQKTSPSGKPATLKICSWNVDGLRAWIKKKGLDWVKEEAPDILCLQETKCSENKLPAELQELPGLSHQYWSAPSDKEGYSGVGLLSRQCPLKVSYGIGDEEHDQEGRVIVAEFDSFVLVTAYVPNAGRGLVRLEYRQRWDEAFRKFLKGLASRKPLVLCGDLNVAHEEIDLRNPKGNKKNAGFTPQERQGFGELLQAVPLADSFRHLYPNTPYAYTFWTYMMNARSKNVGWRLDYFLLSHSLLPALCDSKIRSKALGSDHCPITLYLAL
Sequence of APE1 H309A (P27695 whole entry H309A): as the sequence (P27695 whole entry) above, with H309A counted along it

Usually Kd stands for a measure of binding affinity in units of concentration. The molecule `C[n+]1ccc(-c2c3nc(c(-c4cc[n+](C)cc4)c4ccc([nH]4)c(-c4cc[n+](C)cc4)c4nc(c(-c5cc[n+](C)cc5)c5ccc2[nH]5)C=C4)C=C3)cc1` came in with a Kd in [1] of 11 nM.

In the case of “AGGGCGGTGTGGGAAGAGGGAAGAGGGGGAGG [G4-forming KRAS oligo (32R), 6-FAM]”, in [2], the dissociation constant (Kd) was found to be 0.5 nM.

Regarding AGGGCGGTGTGGGAAGAGGGAAGAGGGGGAGG (structured_DNA) [G4-forming KRAS oligo (32R), 6-FAM], the dissociation constant (Kd) with APE1 H309A turned out to be 152 ± 25 nM; in the series with APE1 WT [3] it was 31 ± 3 nM; with APE1 NΔ42 it was 313 ± 12 nM. In the series with GST-APE1 1-42, the binding result is “no binding”.

What is called IC50 is the concentration that gives 50% inhibition. With AGGGCGGTGTGGGAAGAGGGAAGAGGGGGAGG (structured_DNA) [G4-forming KRAS oligo (32R), unlabeled], the IC50 with APE1 WT [4] amounted to 2300 ± 1500 nM. Also, the dissociation constant (Kd) with APE1 WT [5] was 12 nM.

On to AGTTCGGTGTGTTAAGAGTTAAGAGTTGGAGG (ssDNA) [non-G4-forming KRAS oligo, 6-FAM], for which the binding result with APE1 WT [6] is on record as “no binding”.
